# From US11994512B2, “Single-cell genomic methods to generate ex vivo cell systems that recapitulate in vivo biology with improved fidelity” (Massachusetts Institute of Technology, priority 2018, dated 2024)
# B1: Q61391 (protein, UniProt Q61391 1-750, looked up)
# chain: MGRSESQMDITDINAPKPKKKQRWTPLEISLSVLVLLLTIIAVTMIALYATYDDGICKSSDCIKSAARLIQNMDASVEPCTDFFKYACGGWLKRNVIPETSSRYSNFDILRDELEVILKDVLQEPKTEDIVAVQKAKTLYRSCINESAIDSRGGQPLLKLLPDIYGWPVASDNWDQTYGTSWTAEKSIAQLNSKYGKKVLINFFVGTDDKNSTQHIIHFDQPRLGLPSRDYYECTGIYKEACTAYVDFMISVARLIRQEQSLPIDENQLSLEMNKVMELEKEIANATTKPEDRNDPMLLYNKMTLAKLQNNFSLEVNGKSFSWSNFTNEIMSTVNINIQNEEEVVVYAPEYLTKLKPILTKYSPRDLQNLMSWRFIMDLVSSLSRNYKESRNAFRKALYGTTSETATWRRCANYVNGNMENAVGRLYVEAAFAGESKHVVEDLIAQIREVFIQTLDDLTWMDAETKKKAEEKALAIKERIGYPDDIISNENKLNNEYLELNYREDEYFENIIQNLKFSQSKQLKKLREKVDKDEWISGAAVVNAFYSSGRNQIVFPAGILQPPFFSAQQSNSLNYGGIGMVIGHEITHGFDDNGRNFNKDGDLVDWWTQQSANNFKDQSQCMVYQYGNFSWDLAGGQHLNGINTLGENIADNGGIGQAYRAYQNYVKKNGEEKLLPGLDLNHKQLFFLNFAQVWCGTYRPEYAVNSIKTDVHSPGNFRIIGTLQNSAEFADAFHCRKNSYMNPERKCRVW
# modifications: full-length
# B2: Q64338 (protein, UniProt Q64338 1-706, looked up)
# chain: MESPTKEIEEFESNSLKHLQPEQIEKIWLRLRGLRKYKKTSQRLRSLVKQLERGEASVVDLKKNLEYAATVLESVYIDETRRLLDTEDELSDIQSDAVPSEVRDWLASTFTRQMGMMLRRSDEKPRFKSIVHAVQAGIFVERMYRRTSNMVGLSYPPAVIDALKDVDTWSFDVFSLNEASGDHALKFIFYELLTRYDLISRFKIPISALVSFVEALEVGYSKHKNPYHNLMHAADVTQTVHYLLYKTGVANWLTELEIFAIIFSAAIHDYEHTGTTNNFHIQTRSDPAILYNDRSVLENHHLSAAYRLLQEDEEMNILVNLSKDDWREFRTLVIEMVMATDMSCHFQQIKAMKTALQQPEAIEKPKALSLMLHTADISHPAKAWDLHHRWTMSLLEEFFRQGDREAELGLPFSPLCDRKSTMVAQSQVGFIDFIVEPTFTVLTDMTEKIVSPLIDESSQTGGTGQRRSSLNSINSSDAKRSGVKSSGSDGSAPINNSVIPVDYKSFKATWTEVVQINRERWRAKVPKEEKAKKEAEEKARLAAEEKQKEMEAKSQAEQGTTSKGEKKTSGEAKSQVNGTRKGDNPRGKNSKGEKAGEKQQNGDLKDGKNKADKKDHSNTGNESKKTDGTKKRSHGSPAPSTSSTSRITLPVIKPPLRHFKRPAYASSSYAPSVPKKTDDHPVRYKMLDQRIKMKKIQNISHHWNKK
# modifications: full-length
# B3: Q61263 (protein, UniProt Q61263 1-540, looked up)
# chain: MSLRNRLSKSGENPEQDEAQKNFMDTYRNGHITMKQLIAKKRLLAAEAEELKPLFMKEVGCHFDDFVTNLIEKSASLDNGGCALTTFSILEEMKKNHRAKDLRAPPEQGKIFISRQSLLDELFEVDHIRTIYHMFIALLILFVLSTIVVDYIDEGRLVLEFNLLAYAFGKFPTVIWTWWAMFLSTLSIPYFLFQRWAHGYSKSSHPLIYSLVHGLLFLVFQLGVLGFVPTYVVLAYTLPPASRFILILEQIRLIMKAHSFVRENIPRVLNAAKEKSSKDPLPTVNQYLYFLFAPTLIYRDNYPRTPTVRWGYVAMQFLQVFGCLFYVYYIFERLCAPLFRNIKQEPFSARVLVLCVFNSILPGVLILFLSFFAFLHCWLNAFAEMLRFGDRMFYKDWWNSTSYSNYYRTWNVVVHDWLYYYVYKDLLWFFSKRFKSAAMLAVFALSAVVHEYALAICLSYFYPVLFVLFMFFGMAFNFIVNDSRKRPIWNIMVWASLFLGYGLILCFYSQEWYARQHCPLKNPTFLDYVRPRTWTCRYVF
# modifications: full-length
# B4: Q64176 (protein, UniProt Q64176 1-562, looked up)
# chain: MCLSALILVSLAAFTAGAGHPSSPPMVDTVQGKVLGKYISLEGFTQPVAVFLGVPFAKPPLGSLRFAPPQPAEPWSSVKNATSYPPMCFQDPVTGQIVNDLLTNRKEKIPLQFSEDCLYLNIYTPADLTKSDRLPVMVWIHGGGLVLGGASTYDGLVLSTHENVVVVVIQYRLGIWGFFSTGDEHSRGNWGHLDQVAALHWVQDNIAKFGGDPGSVTIFGESAGGESVSVLVLSPLAKNLFQRAISESGVALTAGLVKKNTRPLAEKIAVISGCKNTTSAAMVHCLRQKTEEELLGTTLKLNLFKLDLHGDSRQSHPFVPTVLDGVLLPKMPEEILAEKNFNTVPYIVGINKQEFGWILPTMMNYPPSDVKLDQMTAMSLLKKSSFLLNLPEDAIAVAIEKYLRDKDYTGRNKDQLLELIGDVVFGVPSVIVSRGHRDAGAPTYMYEFQYSPSFSSEMKPDTVVGDHGDEIYSVFGAPILRGGTSEEEINLSKMMMKFWANFARNGNPNGQGLPHWPEYDQKEGYLQIGATTQQAQKLKEKEVAFWTELLAKKQLPTEHTEL
# modifications: full-length
# B5: Q62431 (protein, UniProt Q62431 1-601, looked up)
# chain: MKLQAVMETLIQRQQRARQELEARQAPPPPPPEPTGVRARTTMTDEDREPENARMHRTQMAALAAMRAAAAGLGHPSSPGGSEDGPPISGDEDTAREGTLSSPALHGSVLEGAGHAEGDRHLMDVGSDDDDTKSKWEEQELEELGEEEEEEEEEDDFEEEEEEEEGLGPPESASLGTAGLFTRKAPPAQAFRGDGGPRMLSGPERLGPGPAHPSHMASQMPPPDHGDWTFEEQFKQLYELDADPKRKEFLDDLFSFMQKRGTPVNRIPIMAKQVLDLFMLYVLVTEKGGLVEVINKKLWREITKGLNLPTSITSAAFTLRTQYMKYLYPYECERRGLSSPNELQAAIDSNRREGRRQSFGGSLFAYSPSGAHSMLPSPKLPVTPLGLAASTNGSSITPAPKIKKEEDSAIPITVPGRLPVSLAGHPVVAAQAAAVQAAAAQAAVAAQAAALEQLREKLESTEPPEKKMALVADEQQRLMQRAVQQSFLAMTAQLPMNIRINSQASESRQDSAVSLTSANGSNSISMSVEMNGIVYTGVLFAQPPPPTAPSAPGKGGVSSIGTNTTTGSRTGASGSTVSGGQVGLPGVSTPTMSSTSNNSLP
# modifications: full-length
# B6: Q62395 (protein, UniProt Q62395 1-81, looked up)
# chain: METRALWLMLLVVLVAGSSGIAADYVGLSPSQCMVPANVRVDCGYPSVTSEQCNNRGCCFDSSIPNVPWCFKPLQETECTF
# modifications: full-length
# Test system: intracellular proteome of ENR+CD and ENR organoids
# Experiment: LC-MS/MS TMT proteomics of ENR+CD versus ENR organoids
# Type: cell-based, C57BL/6 mice
# Settings: for Average logFC: ENR+CD versus ENR organoids, sample pairs in aggregate (n=4, 2 technical replicates from two biological donors); for M1-1 Log2 Median Normalized / M1-2 Log2 Median Normalized / M2-1 Log2 Median Normalized / M2-2 Log2 Median Normalized: protein abundance ratio ENR+CD versus ENR organoids, LC-MS/MS TMT proteomics; for M1-1 Log2 Median Normalized: sample pair M1-1; for M1-2 Log2 Median Normalized: sample pair M1-2; for M2-1 Log2 Median Normalized: sample pair M2-1; for M2-2 Log2 Median Normalized: sample pair M2-2; for change: up = enriched in ENR+CD, down = enriched in ENR, FDR<0.05 and log fold change cut-off
molecule,measurement,value
B1,Average logFC,−1.133
same,M1-1 Log2 Median Normalized,−0.83
same,M1-2 Log2 Median Normalized,−1.694
same,M2-1 Log2 Median Normalized,1.3345
same,M2-2 Log2 Median Normalized,−0.675
same,change,down
B2,Average logFC,1.157
same,M1-1 Log2 Median Normalized,0.73
same,M1-2 Log2 Median Normalized,0.722
same,M2-1 Log2 Median Normalized,1.3705
same,M2-2 Log2 Median Normalized,1.805
same,change,up
B3,Average logFC,1.308
same,M1-1 Log2 Median Normalized,1.563
same,M1-2 Log2 Median Normalized,2.15
same,M2-1 Log2 Median Normalized,1.0245
same,M2-2 Log2 Median Normalized,0.494
same,change,up
B4,Average logFC,−1.21
same,M1-1 Log2 Median Normalized,−1.21
same,M1-2 Log2 Median Normalized,−1.557
same,M2-1 Log2 Median Normalized,−1.2065
same,M2-2 Log2 Median Normalized,−1.062
same,change,down
B5,Average logFC,1.251
same,M1-1 Log2 Median Normalized,1.672
same,M1-2 Log2 Median Normalized,1.343
same,M2-1 Log2 Median Normalized,1.2465
same,M2-2 Log2 Median Normalized,0.741
same,change,up
B6,Average logFC,1.185
same,M1-1 Log2 Median Normalized,1.037
same,M1-2 Log2 Median Normalized,1.294
same,M2-1 Log2 Median Normalized,0.4235
same,M2-2 Log2 Median Normalized,1.984
same,change,up
